Among the data in patent US20070280947A1 are COMP-Ang-1 concentration giving maximal receptor phosphorylation and COMP-Ang-1 concentration giving significant receptor phosphorylation values, retold here.

For assay [1], the target named is Human Tie-1 (human) (UniProt P35590). The assay is described as follows: cell-based or functional assay.
For assay [2], the target named is Human Tie-2 (human) (UniProt Q02763). The assay is described as follows: cell-based or functional assay.
Chain of UniProt Q02763 (Q02763 23-1124 Q346P/T695I): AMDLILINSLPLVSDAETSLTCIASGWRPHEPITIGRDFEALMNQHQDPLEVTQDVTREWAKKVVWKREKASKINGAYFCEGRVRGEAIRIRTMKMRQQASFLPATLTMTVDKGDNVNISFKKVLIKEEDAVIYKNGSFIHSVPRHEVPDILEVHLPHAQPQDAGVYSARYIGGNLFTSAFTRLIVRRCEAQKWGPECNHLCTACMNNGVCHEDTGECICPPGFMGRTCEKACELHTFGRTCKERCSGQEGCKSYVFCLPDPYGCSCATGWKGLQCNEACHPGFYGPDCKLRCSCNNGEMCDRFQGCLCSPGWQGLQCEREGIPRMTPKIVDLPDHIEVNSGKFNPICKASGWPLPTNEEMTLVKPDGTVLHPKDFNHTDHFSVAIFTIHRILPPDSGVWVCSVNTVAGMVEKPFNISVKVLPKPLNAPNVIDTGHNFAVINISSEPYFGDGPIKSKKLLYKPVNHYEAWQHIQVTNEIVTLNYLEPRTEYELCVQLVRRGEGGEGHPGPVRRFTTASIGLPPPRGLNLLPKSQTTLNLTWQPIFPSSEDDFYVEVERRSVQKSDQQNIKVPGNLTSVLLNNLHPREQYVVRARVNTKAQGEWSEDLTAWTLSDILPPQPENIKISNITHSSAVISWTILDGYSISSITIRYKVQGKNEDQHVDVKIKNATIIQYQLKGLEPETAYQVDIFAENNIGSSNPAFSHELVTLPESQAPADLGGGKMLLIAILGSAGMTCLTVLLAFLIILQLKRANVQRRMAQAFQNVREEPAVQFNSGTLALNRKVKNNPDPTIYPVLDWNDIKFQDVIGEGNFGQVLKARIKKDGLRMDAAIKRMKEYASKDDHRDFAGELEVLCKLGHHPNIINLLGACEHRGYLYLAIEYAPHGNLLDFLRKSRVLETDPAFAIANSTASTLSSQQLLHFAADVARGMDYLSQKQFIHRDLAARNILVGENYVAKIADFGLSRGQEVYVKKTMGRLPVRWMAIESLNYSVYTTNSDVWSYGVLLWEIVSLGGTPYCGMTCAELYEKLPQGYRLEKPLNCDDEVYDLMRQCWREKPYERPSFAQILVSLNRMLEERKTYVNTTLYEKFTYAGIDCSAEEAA

Chain of UniProt P35590 (P35590 25-1138): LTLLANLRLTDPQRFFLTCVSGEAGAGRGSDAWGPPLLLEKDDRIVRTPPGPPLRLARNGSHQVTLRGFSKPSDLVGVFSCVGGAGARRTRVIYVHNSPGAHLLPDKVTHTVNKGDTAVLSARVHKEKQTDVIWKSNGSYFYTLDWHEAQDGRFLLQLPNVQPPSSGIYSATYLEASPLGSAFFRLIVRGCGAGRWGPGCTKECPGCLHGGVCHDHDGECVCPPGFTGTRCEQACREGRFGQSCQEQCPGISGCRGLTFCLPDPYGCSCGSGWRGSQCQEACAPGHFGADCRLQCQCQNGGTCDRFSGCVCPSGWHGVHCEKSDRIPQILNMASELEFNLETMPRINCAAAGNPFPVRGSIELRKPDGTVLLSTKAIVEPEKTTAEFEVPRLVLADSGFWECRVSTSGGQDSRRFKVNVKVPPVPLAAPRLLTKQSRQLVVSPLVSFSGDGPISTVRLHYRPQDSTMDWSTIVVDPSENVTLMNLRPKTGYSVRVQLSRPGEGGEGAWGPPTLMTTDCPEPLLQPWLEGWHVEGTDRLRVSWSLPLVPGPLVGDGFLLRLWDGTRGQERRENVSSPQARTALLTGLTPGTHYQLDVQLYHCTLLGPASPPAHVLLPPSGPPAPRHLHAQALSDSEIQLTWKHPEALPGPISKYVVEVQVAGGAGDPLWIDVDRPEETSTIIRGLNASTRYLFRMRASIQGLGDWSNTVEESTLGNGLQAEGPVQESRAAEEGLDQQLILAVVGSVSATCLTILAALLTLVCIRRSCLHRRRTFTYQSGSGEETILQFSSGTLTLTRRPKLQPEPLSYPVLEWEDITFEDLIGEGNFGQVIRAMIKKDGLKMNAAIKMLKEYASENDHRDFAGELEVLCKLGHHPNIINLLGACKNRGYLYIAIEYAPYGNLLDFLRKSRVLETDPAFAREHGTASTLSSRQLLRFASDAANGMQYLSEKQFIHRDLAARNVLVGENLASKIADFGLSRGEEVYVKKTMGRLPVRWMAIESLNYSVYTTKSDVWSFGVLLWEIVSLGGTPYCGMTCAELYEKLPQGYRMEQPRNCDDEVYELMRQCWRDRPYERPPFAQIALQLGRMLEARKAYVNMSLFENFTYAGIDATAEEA

In assay [1], “COMP-Ang-1 chimeric protein (from UniProt Q15389 256-498) (ligand)” came in with a COMP-Ang-1 concentration giving maximal receptor phosphorylation of 600 ng/mL and a COMP-Ang-1 concentration giving significant receptor phosphorylation of 100 ng/mL. For the same substance, in assay [2], the COMP-Ang-1 concentration giving maximal receptor phosphorylation is 600 ng/mL and the COMP-Ang-1 concentration giving significant receptor phosphorylation stood at 100 ng/mL.
